Among the data in US20080032921A1 are IC50 values, retold here.

Assay [1] has as its target HLA-DR DRB1*0404 (human). The assay is described as follows: competition with 125I-labeled reference peptide, purified HLA.
The target in assay [2] is HLA-DR DRB1*1302 (human). The assay is described as above.
The target in assay [3] is HLA-DR DRB1*0301 (human). The assay is described as above.
Assay [4] has as its target HLA-DR DRB1*0405 (human). The assay is described as above.
The target of assay [5] is HLA-DR DRB1*0401 (human). The description is as above.
Assay [6] addresses HLA-DR DRB1*0101 (human). The description is as above.
Assay [7] addresses HLA-DR DRB1*1302 (human). The assay is described as follows: competition with 125I-labelled reference peptide on purified HLA-DR.
The target of assay [8] is HLA-DR DRB1*0401 (human). The assay is described as above.
The target in assay [9] is HLA-DR DRB4*0101 (human). The description is as above.
Assay [10] deals with HLA-DR DRB1*1501 (human). Described as above.
In assay [11] the target is HLA-DR DRB1*0101 (human). Described as above.
The target of assay [12] is HLA-DR DRB1*0404 (human). Briefly: competition with 125I-labelled peptide, purified HLA.
Assay [13] deals with HLA-DR DRB1*1302 (human). The assay is described as above.
Assay [14] concerns the target HLA-DR DRB1*0301 (human). Described as above.
Assay [15] deals with HLA-DR DRB1*0405 (human). The assay is described as above.
The target of assay [16] is HLA-DR DRB1*0401 (human). The description is as above.
Assay [17] has as its target HLA-DR DRB1*0101 (human). The description is as above.
Assay [18] concerns the target purified HLA-DR DRB1*0101 (human). The assay is described as follows: competition with 125I-labelled reference peptide, purified HLA.
Assay [19] deals with purified HLA-DR DRB1*0401 (human). The assay is described as above.
The target in assay [20] is purified HLA-DR DRB1*0405 (human). The description is as above.
Assay [21] addresses purified HLA-DR DRB1*1302 (human). The description is as above.
The target of assay [22] is purified HLA-DR DRB1*0404 (human). Described as above.
Assay [23] addresses purified HLA-DR DRB1*0301 (human). The assay is described as above.
Assay [24] has as its target HLA-DR DRB1*1302 (human). Briefly: competition vs 125I-labeled peptide, purified HLA.
For assay [25], the target named is HLA-DR DRB1*0301 (human). The assay is described as follows: competition vs 125I-labeled peptide, purified HLA.
Assay [26] concerns the target HLA-DR DRB1*0401 (human). Briefly: competition vs 125I-labeled peptide, purified HLA.
The target of assay [27] is HLA-DR DRB4*0101 (human). The assay is described as follows: competition vs 125I-labeled peptide, purified HLA.
Assay [28] has as its target HLA-DR DRB1*1501 (human). The assay is described as follows: competition vs 125I-labeled peptide, purified HLA.
In assay [29] the target is HLA-DR DRB1*0101 (human). The assay is described as follows: competition vs 125I-labeled peptide, purified HLA.
Assay [30] addresses purified HLA-DR molecule DRB1*0101 (human). The assay is described as follows: competition with 125I-labelled peptide for purified HLA.
For assay [31], the target named is purified HLA-DR molecule DRB1*0404 (human). Described as above.
The target of assay [32] is purified HLA-DR molecule DRB1*0401 (human). The assay is described as above.
For assay [33], the target named is purified HLA-DR molecule DRB1*0405 (human). Described as above.
The target in assay [34] is purified HLA-DR molecule DRB1*1302 (human). Described as above.
Assay [35] deals with purified HLA-DR molecule DRB1*0301 (human). The assay is described as above.

B1: Flu.PA.393 (peptide)
peptide: LKQYDSDEPELRSLS
modifications: not checked
Usually IC50 stands for the concentration that gives 50% inhibition. A high value points to weaker potency in that assay. Turning to B1, the IC50 in assay [1] was 5800 nM; in assay [2] it was above 10000 nM; in assay [3] it was 88 nM; in assay [4], above 10000 nM; in assay [5] it was 7260 nM; in assay [6] it was 17700 nM.

B2: Flu.NA.289 peptide … (peptide)
peptide: NLEYQIGYICSGVFG
modifications: not checked
B2: the IC50 in assay [7] came to 41 nM; in assay [8] it was 975 nM; in assay [9], 354 nM; in [10], 13 nM; in assay [11] it was 1130 nM.

B3: Flu.NS2.178 (peptide)
peptide: ALQLLFEVEQEIRTF
modifications: not checked
B3: the IC50 was 2150 nM in assay [1]; above 10000 nM in assay [2]; 403 nM in [3]; 8870 nM in [4]; 10300 nM in assay [5]; 3490 nM in [6].

B4: Flu.PA.12 (peptide)
peptide: FNPMIVELAEKTMKE
modifications: not checked
Turning to B4, the IC50 is 610 nM in [1]; 1250 nM in assay [2]; 744 nM in assay [3]; 1240 nM in [4]; 29 nM in assay [5]; 48 nM in assay [6].

B5: Flu.PA.446 (peptide)
peptide: RNYFTAEVSHCRATE
modifications: not checked
Consider B5, for which the IC50 is 7600 nM in assay [1]; above 10000 nM in assay [2]; 883 nM in assay [3]; 5720 nM in assay [4]; 45 nM in assay [5]; 627 nM in [6].

B6: Flu.PA.658 (peptide)
peptide: LEGFSAESRKLLLVV
modifications: not checked
As for B6, the IC50 in [12] was 1150 nM; in assay [13], 2270 nM; in assay [14] it was 661 nM; in [15] it was 3860 nM; in assay [16], 861 nM; in assay [17], 12 nM.

B7: Flu.PB2.496 (peptide)
peptide: RVVVSIDRFLRVRDQ
modifications: not checked
B7: the IC50 in assay [18] amounted to 1860 nM; in assay [19] it was 111 nM; in assay [20] it was 2050 nM; in [21], 8.1 nM; in assay [22], 400 nM; in assay [23], 67 nM.

B8: Flu.HA.318 (peptide)
peptide: CPKYVKSNRLVLATGL
modifications: not checked
Regarding B8, the IC50 in assay [24] is 48 nM; in assay [25] it was 2920 nM; in assay [26] it was 868 nM; in [27] it was 287 nM; in assay [28], 230 nM; in assay [29], 2760 nM.

B9: Flu.PA.423 (peptide)
peptide: SIWIELDEIGEDVAP
modifications: not checked
As to B9, the IC50 in [2] is above 10000 nM; in assay [3], 59 nM; in assay [4], above 10000 nM; in [5], 5400 nM; in assay [6], 13400 nM.

B10: Flu.PB2.404 (peptide)
peptide: AMVFSQEDCMIKAVR
modifications: not checked
B10: the IC50 in [18] amounted to 11000 nM; in assay [19] it was 3280 nM; in assay [20] it was 6780 nM; in [21], 9200 nM; in assay [22], 336 nM; in assay [23] it was 718 nM.

B11: … (Flu.PB2.205) (peptide)
peptide: MVAYMLERELVRKTR
modifications: not checked
In the case of B11, the IC50 stood at 97 nM in assay [30]; 499 nM in [31]; 166 nM in [32]; 5540 nM in [33]; 2080 nM in assay [34]; 878 nM in assay [35].

B12: Flu.PA.694 (peptide)
peptide: EECLINDPWVLLNAS
modifications: not checked
For B12, the IC50 in assay [12] turned out to be 183 nM; in assay [13], 246 nM; in assay [14], 618 nM; in [15], 15000 nM; in [16] it was 1220 nM; in assay [17], 34 nM.

B13: … (Flu.PB2.135) (peptide)
peptide: PVHFRNQVKIRRRVD
modifications: not checked
As for B13, the IC50 is 2970 nM in assay [30]; 5980 nM in assay [31]; 1300 nM in [32]; 6040 nM in assay [33]; 359 nM in assay [34]; 458 nM in assay [35].

B14: Flu.HA.444 (peptide)
peptide: LLVLMENERTLDFHD
modifications: not checked
On to B14, for which the IC50 in [25] stood at 64 nM.

B15: Flu.NS2.180 (peptide)
peptide: QLLLEVEQEIRTFSF
modifications: not checked
Take B15: the IC50 in [1] was 1600 nM; in assay [2], 13200 nM; in assay [3] it was 792 nM; in [4] it was 5140 nM; in [5] it was 13900 nM; in [6] it was 11900 nM.

B16: Flu.PB2.483 (peptide)
peptide: VSKMGVDEYSSTERV
modifications: not checked
Turning to B16, the IC50 in assay [21] was found to be 1850 nM; in [23] it was 1020 nM.

B17: LRNLMS1SRTREILT (Flu.PB2.10) (peptide)
peptide: LRNLMSQSRTREILT
modifications: not checked
Consider B17, for which the IC50 in [30] came to 613 nM; in [31], 170 nM; in assay [32] it was 4970 nM; in assay [33], 9690 nM; in [34], 5.4 nM; in assay [35], 978 nM.

B18: … (Flu.PB1.682) (peptide)
peptide: QRGILEDEQMYQKCC
modifications: not checked
Consider B18, for which the IC50 in assay [30] came out at 433 nM; in assay [31], 3270 nM; in assay [32], 2560 nM; in [33], 700 nM; in assay [34], 10900 nM; in assay [35], 34 nM.

B19: … (Flu.PB1.683) (peptide)
peptide: RGILEDEQMYQKCCN
modifications: not checked
Take B19: the IC50 was found to be 199 nM in assay [30]; 10500 nM in assay [31]; 5740 nM in assay [32]; 3280 nM in assay [33]; 18000 nM in assay [34]; 43 nM in assay [35].

B20: Flu.PB2.697 (peptide)
peptide: FLILGKEDRRYGPAL
modifications: not checked
In the case of B20, the IC50 in [18] amounted to 8390 nM; in [19], 1740 nM; in assay [21], 118 nM; in [23], 565 nM.
